The target in assay [1] is T1, recombinant human CD38 (SPR antigen of Example 2) (human, UniProt P28907 43-300). Nature of the assay: SPR against recombinant protein; the cell gives two values for mid/low, the second taken as the CD3low construct.
In assay [2] the target is T1, recombinant human CD38 (SPR antigen of …). The experiment in a line: SPR; KD rounded to integer; the cell gives two values for mid/low, the second taken as the CD3low construct. A general note: SPR reads the build-up and loss of mass on a sensor chip optically.
Assay [3] has as its target human CD28 (SPR antigen of Example 2) (human, UniProt P10747 19-152). Described as above.
The target in assay [4] is T2, human CD3 (SPR antigen of Example 2) (human).
T2 chain: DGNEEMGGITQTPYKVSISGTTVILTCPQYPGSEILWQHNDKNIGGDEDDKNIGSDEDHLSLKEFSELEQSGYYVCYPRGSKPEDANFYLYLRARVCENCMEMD
Described as above.

In a further assay the target is T3, hCD38-his (SEQ ID NO: 2) (human, UniProt P28907 45-300).
T3 construct: also called human CD38-histag (ID2); soluble extracellular domain of humanCD38
Nature of the assay: SPR (summary table; Table K value rounded).

Assay [5] deals with T1, recombinant human CD38 (SPR antigen of …). Nature of the assay: SPR.
For assay [6], the target named is T2, human CD3 (SPR antigen of Example 2). The experiment in a line: SPR; KD rounded to integer per the table's title.
In assay [7] the target is T4, human CD38 expressed on the surface of recombinant murine preB::300.19 cells (human, UniProt P28907 1-300).
T4 construct: whole, on cells; also called hCD38-expressing cells; cells expressing human CD38
The experiment in a line: flow cytometry on hCD38-expressing murine preB::300.19 cells. A general note: A flow cytometer gives signals particle by particle.

The target in assay [8] is T1, recombinant human CD38 (SPR antigen of …). The experiment in a line: SPR against recombinant protein; the cell gives two values for mid/low, the first taken as the CD3mid construct.
The target is the same in assay [9]. Nature of the assay: SPR; KD rounded to integer; the cell gives two values for mid/low, the first taken as the CD3mid construct.
Assay [10] concerns the target T2, human CD3 (SPR antigen of Example 2). The assay is described as above.

In general, Kd refers to the free concentration of one partner at which half of the binding sites on the other are occupied at equilibrium, for simple one-to-one binding. As a reminder, the EC50 is the concentration needed to bring the measured effect to its halfway point.

Changes are numbered by the printed parent chain.

B1: CD38VH1xCD28cvnxCD3low trispecific binding protein (other)
VH 1: QVQLQESGPGLVKPSQTLSLTCTVSGFSLSDYGVHWVRQPPGKGLEWLGVIWAGGGTNYNPSLKSRKTISKDTSKNQVSLKLSSVTAADTAVYYCARDKGYSYYYSMDYWGQGTTVTVS
VL 1: DIVLTQSPASLAVSPGQRATITCRASESVEYYVTSLMQWYQQKPGQPPKLLIFAASNVESGVPARFSGSGSGTDFTLTINPVEANDVANYYCQQSRKVPYTFGQGTKLEIK
VH 2: QVQLVESGGGVVQPGRSLRLSCAASGFTFTKAWMHWVRQAPGKGLEWVAQIKDKSNSYATYYADSVKGRFTISRDNSKNTLYLQMNSLRAEDTAVYYCRGVYYALSPFDYWGQGTLVTVSS
VL 2: DIVMTQTPLSLSVTPGQPASISCKSSQSLVHNNGNTYLSWYLQKPGQSPQLLIYKVSNRFSGVPDRFSGSGSGTDFTLKISRVEAEDVGVYYCGQGTQYPFTFGGGTKVEIK
VH 3: QVQLVQSGAEVVKPGASVKVSCKASGYTFTSYAMHWVKEAPGQRLEWIGYIYPGQGGTNYNQKFQGRATLTADTSASTAYMELSSLRSEDTAVYFCARTGGLRRAYFTYWGQGTLVTVSS
VL 3: DIVLTQSPATLSLSPGERATISCRASQSVSSYGQGFMHWYQQKPGQPPRLLIYGASSRATGIPARFSGSGSGTDFTLTISPLEPEDFAVYYCQQNKEDPWTFGGGTKLEIK
notes: also called CD38VH1xCD28cvnxCD3mid/low
Consider B1, for which the Kd is 6 nM in assay [1], 6 nM in assay [2], 34 nM in [3] and 59 nM in [4].

B2: antiCD38_C2-CD38-1_VH3-VL3 (antibody, human IgG1, kappa, V domains shown)
VH: B1 VH 3 with Y32F, A33N, Q55N
VL: DIVLTQSPATLSLSPGERATISCRASESVDSYGNGFMHWYQQKPGQPPRLLIYLASSRATGIPARFSGSGSGTDFTLTISPLEPEDFAVYYCQQNKEDPWTFGGGTKLEIKR
For B2, in the assay with hCD38-his (SEQ ID NO: 2), binding was put at a Kd of 0.48 nM.

B3: CD38VH1xCD28supxCD3low trispecific binding protein (other)
VH 1: QVQLVQSGAEVVKPGASVKVSCKASGYTFTSYYIHWVRQAPGQGLEWIGSIYPGNVNTNYAQKFQGRATLTVDTSISTAYMELSRLRSDDTAVYYCTRSHYGLDWNFDVWGKGTTVTVSS
VL 1: DIQMTQSPSSLSASVGDRVTITCQASQNIYVWLNWYQQKPGKAPKLLIYKASNLHTGVPSRFSGSGSGTDFTLTISSLQPEDIATYYCQQGQTYPYTFGQGTKLEIK
VH 2: B1 VH 2
VL 2: B1 VL 2
VH 3: B1 VH 3
VL 3: B1 VL 3
notes: also called CD38VH1xCD28supxCD3mid/low
B3: the Kd in [1] stood at 6 nM; in assay [2], 6 nM; in assay [3] it was 4 nM; in assay [4], 76 nM.

B4: CD38HHY1370xCD28supxCD3mid trispecific binding protein (other)
light 1: DIVMTQTPLSLSVTPGQPASISCKSSQSLVHNNANTYLSWYLQKPGQSPQSLIYKVSNRFSGVPDRFSGSGSGTDFTLKISRVEAEDVGVYYCGQGTQYPFTFGSGTKVEIKGQPKAAPDIQMTQSPSSLSASVGDRVTITCQASQNIYVWLNWYQQKPGKAPKLLIYKASNLHTGVPSRFSGSGSGTDFTLTISSLQPEDIATYYCQQGQTYPYTFGQGTKLEIKTKGPSRTVAAPSVFIFPPSDEQLKSGTASVVCLLNNFYPREAKVQWKVDNALQSGNSQESVTEQDSKDSTYSLSSTLTLSKADYEKHKVYACEVTHQGLSSPVTKSFNRGEC
heavy 1: QVQLVQSGAEVVKPGASVKVSCKASGYTFTSYYIHWVRQAPGQGLEWIGSIYPGNVNTNYAQKFQGRATLTVDTSISTAYMELSRLRSDDTAVYYCTRSHYGLDWNFDVWGKGTTVTVSSSQVQLVESGGGVVQPGRSLRLSCAASGFTFTKAWMHWVRQAPGKQLEWVAQIKDKSNSYATYYADSVKGRFTISRDDSKNTLYLQMNSLRAEDTAVYYCRGVYYALSPFDYWGQGTLVTVSSRTASTKGPSVFPLAPCSRSTSESTAALGCLVKDYFPEPVTVSWNSGALTSGVHTFPAVLQSSGLYSLSSVVTVPSSSLGTKTYTCNVDHKPSNTKVDKRVESKYGPPCPPCPAPEAAGGPSVFLFPPKPKDTLMISRTPEVTCVVVDVSQEDPEVQFNWYVDGVEVHNAKTKPREEQFNSTYRVVSVLTVLHQDWLNGKEYKCKVSNKGLPSSIEKTISKAKGQPREPQVCTLPPSQEEMTKNQVSLSCAVKGFYPSDIAVEWESNGQPENNYKTTPPVLDSDGSFFLVSKLTVDKSRWQEGNVFSCSVMHEALHNHYTQKSLSLSLG
heavy 2: QVQLVESGGGVVQPGRSLRLSCAASGFTFSSYGMHWVRQAPGKGLEWVAVIWYDGSNKYYADSVKGRFTISGDNSKNTLYLQMNSLRAEDTAVYYCARMFRGAFDYWGQGTLVTVSSASTKGPSVFPLAPCSRSTSESTAALGCLVKDYFPEPVTVSWNSGALTSGVHTFPAVLQSSGLYSLSSVVTVPSSSLGTKTYTCNVDHKPSNTKVDKRVESKYGPPCPPCPAPEAAGGPSVFLFPPKPKDTLMISRTPEVTCVVVDVSQEDPEVQFNWYVDGVEVHNAKTKPREEQFNSTYRVVSVLTVLHQDWLNGKEYKCKVSNKGLPSSIEKTISKAKGQPREPQVYTLPPCQEEMTKNQVSLWCLVKGFYPSDIAVEWESNGQPENNYKTTPPVLDSDGSFFLYSKLTVDKSRWQEGNVFSCSVMHEALHNHYTQKSLSLSLG
light 2: AIQMTQSPSSLSASVGDRVTITCRASQGIRNDLGWYQQKPGKAPKLLIYAASSLQSGVPSRFSGSGSGTDFTLTISGLQPEDSATYYCLQDYIYYPTFGQGTKVEIKRTVAAPSVFIFPPSDEQLKSGTASVVCLLNNFYPREAKVQWKVDNALQSGNSQESVTEQDSKDSTYSLSSTLTLSKADYEKHKVYACEVTHQGLSSPVTKSFNRGEC
On to B4, for which the Kd in assay [5] stood at 1 nM; in assay [6], 48 nM.

B5: CD38VH1xCD28supxCD3mid trispecific binding protein (other)
light 1: B4 light 1
heavy 1: B4 heavy 1
heavy 2: QVQLVQSGAEVVKPGASVKVSCKASGYTFTSYAMHWVKEAPGQRLEWIGYIYPGQGGTNYNQKFQGRATLTADTSASTAYMELSSLRSEDTAVYFCARTGGLRRAYFTYWGQGTLVTVSSASTKGPSVFPLAPCSRSTSESTAALGCLVKDYFPEPVTVSWNSGALTSGVHTFPAVLQSSGLYSLSSVVTVPSSSLGTKTYTCNVDHKPSNTKVDKRVESKYGPPCPPCPAPEAAGGPSVFLFPPKPKDTLMISRTPEVTCVVVDVSQEDPEVQFNWYVDGVEVHNAKTKPREEQFNSTYRVVSVLTVLHQDWLNGKEYKCKVSNKGLPSSIEKTISKAKGQPREPQVYTLPPCQEEMTKNQVSLWCLVKGFYPSDIAVEWESNGQPENNYKTTPPVLDSDGSFFLYSKLTVDKSRWQEGNVFSCSVMHEALHNHYTQKSLSLSLG
light 2: DIVLTQSPATLSLSPGERATISCRASQSVSSYGQGFMHWYQQKPGQPPRLLIYGASSRATGIPARFSGSGSGTDFTLTISPLEPEDFAVYYCQQNKEDPWTFGGGTKLEIKRTVAAPSVFIFPPSDEQLKSGTASVVCLLNNFYPREAKVQWKVDNALQSGNSQESVTEQDSKDSTYSLSSTLTLSKADYEKHKVYACEVTHQGLSSPVTKSFNRGEC
notes: also called antiCD38_C2-CD38-1_VH1-VL1xCD28supxCD3mid
For the molecule B5, the EC50 in [7] came to 11 nM. Moreover, the Kd in assay [8] was determined as 4 nM; in [9], 4 nM; in [10], 21 nM.

These data come from patent publication US20200140552A1 (Sanofi, published 2020).
